{"source": "paper PMC6743065", "about": "“Structural and functional characterization of the mitochondrial complex IV assembly factor Coa6” (Life Science Alliance, 2019)", "key": {"[1]": {"target": "the molecule itself", "test": "crystal structure; ^W59CCoa6 25 mg/ml in 20 mM Tris-MES pH 8.0, 150 mM NaCl; crystallized with 0.1 M Bis-Tris pH 5.7, 0.23 M MgCl2, 29% PEG 3350, 20°C; 2.2 Å; four molecules per asymmetric unit"}, "[2]": {"target": "the molecule itself", "test": "SEC; analytical SEC, Superdex 200 Increase 3.2/300, 100 μg protein, 20 mM Tris-MES pH 8.0, 150 mM NaCl, 0.05 ml/min; elution volumes compared with that of ^WTCoa6"}}}
{"protein": "pathogenic mutant protein ^W59CCoa6 (natural protein, human, five residues left at the N terminus after cleavage of the GST tag with PreScission Protease; Coa6, human; residues 47-125 of the full-length Coa6 isoform 1 (UniProtKB Q5JTJ3) with the patient mutation W59C; In the crystal, Cys59 of each chain is joined by an intermolecular disulfide to Cys59 of another chain; not shown: GST, N-terminal, cleaved) GPLGSMAAPSMKERQVCCGARDEYWKCLDENLEDASQCKKLRSSFESSCPQQWIKYFDKRRDYLKFKEKFEAGQFEPSETTAKS", "values": [{"measurement": "binding result", "setting": "[1]", "result": "binds"}]}
{"protein": "^Y97A/Y104ACoa6 (natural protein, human, five residues left at the N terminus after cleavage of the GST tag with PreScission Protease; Coa6, human; residues 47-125 of the full-length Coa6 isoform 1 (UniProtKB Q5JTJ3), mutations introduced into the ^WTCoa6 ORF; not shown: GST, N-terminal, cleaved) GPLGSMAAPSMKERQVCWGARDEYWKCLDENLEDASQCKKLRSSFESSCPQQWIKAFDKRRDALKFKEKFEAGQFEPSETTAKS", "values": [{"measurement": "stoichiometry N", "setting": "[2]", "result": 2}]}
{"protein": "human wild-type Coa6 (^WTCoa6) (natural protein, five residues left at the N terminus after cleavage of the GST tag with PreScission Protease; Coa6, human; isoform 3, composed of residues 47-125 of the full-length Coa6 isoform 1 (UniProtKB Q5JTJ3); the N-terminal residue is numbered Met47; Fully oxidized: intramolecular disulfides Cys58-Cys90 and Cys68-Cys79; also called Coa6 isoform 3; not shown: GST, N-terminal, cleaved) GPLGSMAAPSMKERQVCWGARDEYWKCLDENLEDASQCKKLRSSFESSCPQQWIKYFDKRRDYLKFKEKFEAGQFEPSETTAKS", "values": [{"measurement": "stoichiometry N", "setting": "[2]", "result": 2}]}
{"protein": "^Y97ACoa6 (natural protein, human, five residues left at the N terminus after cleavage of the GST tag with PreScission Protease; Coa6, human; residues 47-125 of the full-length Coa6 isoform 1 (UniProtKB Q5JTJ3), mutation introduced into the ^WTCoa6 ORF; not shown: GST, N-terminal, cleaved) GPLGSMAAPSMKERQVCWGARDEYWKCLDENLEDASQCKKLRSSFESSCPQQWIKAFDKRRDYLKFKEKFEAGQFEPSETTAKS", "values": [{"measurement": "stoichiometry N", "setting": "[2]", "result": 2}]}
{"protein": "^R101ACoa6 (natural protein, human, five residues left at the N terminus after cleavage of the GST tag with PreScission Protease; Coa6, human; residues 47-125 of the full-length Coa6 isoform 1 (UniProtKB Q5JTJ3), mutation introduced into the ^WTCoa6 ORF; not shown: GST, N-terminal, cleaved) GPLGSMAAPSMKERQVCWGARDEYWKCLDENLEDASQCKKLRSSFESSCPQQWIKYFDKARDYLKFKEKFEAGQFEPSETTAKS", "values": [{"measurement": "stoichiometry N", "setting": "[2]", "result": 2}]}
{"protein": "^Y104ACoa6 (natural protein, human, five residues left at the N terminus after cleavage of the GST tag with PreScission Protease; Coa6, human; residues 47-125 of the full-length Coa6 isoform 1 (UniProtKB Q5JTJ3), mutation introduced into the ^WTCoa6 ORF; not shown: GST, N-terminal, cleaved) GPLGSMAAPSMKERQVCWGARDEYWKCLDENLEDASQCKKLRSSFESSCPQQWIKYFDKRRDALKFKEKFEAGQFEPSETTAKS", "values": [{"measurement": "stoichiometry N", "setting": "[2]", "result": 2}]}
